Tests used:
Cdc13-MOB = biological target: T1, Cdc13-MOB (Saccharomyces cerevisiae, UniProt P32797 344-496)
T1 sequence: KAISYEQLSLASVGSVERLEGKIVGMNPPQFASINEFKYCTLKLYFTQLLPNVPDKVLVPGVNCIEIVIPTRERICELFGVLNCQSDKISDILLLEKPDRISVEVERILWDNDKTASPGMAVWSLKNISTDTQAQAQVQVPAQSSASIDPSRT

Cdc13-L91R = biological target: T2, Cdc13-L91R (Saccharomyces cerevisiae, UniProt P32797 1-924, L91R); test: filter binding
T2 sequence: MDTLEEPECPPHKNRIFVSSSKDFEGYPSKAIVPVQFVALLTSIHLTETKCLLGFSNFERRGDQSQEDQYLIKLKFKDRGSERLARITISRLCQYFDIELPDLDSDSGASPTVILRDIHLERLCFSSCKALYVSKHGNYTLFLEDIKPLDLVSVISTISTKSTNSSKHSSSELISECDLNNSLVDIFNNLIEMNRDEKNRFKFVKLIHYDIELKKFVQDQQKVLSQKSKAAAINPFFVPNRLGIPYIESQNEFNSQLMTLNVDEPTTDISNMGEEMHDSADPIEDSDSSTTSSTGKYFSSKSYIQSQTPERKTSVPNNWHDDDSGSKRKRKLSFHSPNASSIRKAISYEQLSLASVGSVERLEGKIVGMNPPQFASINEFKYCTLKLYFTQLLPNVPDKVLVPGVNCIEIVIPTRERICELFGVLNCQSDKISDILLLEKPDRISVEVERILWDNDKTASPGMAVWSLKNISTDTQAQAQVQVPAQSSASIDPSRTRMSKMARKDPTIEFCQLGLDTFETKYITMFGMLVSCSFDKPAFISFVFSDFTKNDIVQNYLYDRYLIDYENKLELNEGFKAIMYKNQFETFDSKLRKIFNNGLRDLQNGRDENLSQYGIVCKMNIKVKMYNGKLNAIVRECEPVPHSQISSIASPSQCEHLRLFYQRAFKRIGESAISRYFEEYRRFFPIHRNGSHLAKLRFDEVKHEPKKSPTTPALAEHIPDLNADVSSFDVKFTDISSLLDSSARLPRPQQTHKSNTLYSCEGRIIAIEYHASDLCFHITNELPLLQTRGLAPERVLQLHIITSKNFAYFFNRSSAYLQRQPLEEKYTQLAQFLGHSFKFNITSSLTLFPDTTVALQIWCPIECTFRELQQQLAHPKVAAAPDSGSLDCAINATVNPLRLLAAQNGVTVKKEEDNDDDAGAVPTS

Cdc13-DBD = biological target: T3, Cdc13-DBD (Saccharomyces cerevisiae, UniProt P32797 497-694); test: filter binding
T3 sequence: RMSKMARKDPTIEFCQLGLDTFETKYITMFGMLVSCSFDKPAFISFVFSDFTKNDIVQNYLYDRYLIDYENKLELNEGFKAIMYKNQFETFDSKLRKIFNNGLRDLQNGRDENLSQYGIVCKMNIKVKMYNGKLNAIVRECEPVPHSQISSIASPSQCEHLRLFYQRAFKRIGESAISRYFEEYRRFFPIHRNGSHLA

Cdc13 [1] = biological target: T4, Cdc13 (Saccharomyces cerevisiae, UniProt P32797 1-924); test: filter binding
T4 sequence: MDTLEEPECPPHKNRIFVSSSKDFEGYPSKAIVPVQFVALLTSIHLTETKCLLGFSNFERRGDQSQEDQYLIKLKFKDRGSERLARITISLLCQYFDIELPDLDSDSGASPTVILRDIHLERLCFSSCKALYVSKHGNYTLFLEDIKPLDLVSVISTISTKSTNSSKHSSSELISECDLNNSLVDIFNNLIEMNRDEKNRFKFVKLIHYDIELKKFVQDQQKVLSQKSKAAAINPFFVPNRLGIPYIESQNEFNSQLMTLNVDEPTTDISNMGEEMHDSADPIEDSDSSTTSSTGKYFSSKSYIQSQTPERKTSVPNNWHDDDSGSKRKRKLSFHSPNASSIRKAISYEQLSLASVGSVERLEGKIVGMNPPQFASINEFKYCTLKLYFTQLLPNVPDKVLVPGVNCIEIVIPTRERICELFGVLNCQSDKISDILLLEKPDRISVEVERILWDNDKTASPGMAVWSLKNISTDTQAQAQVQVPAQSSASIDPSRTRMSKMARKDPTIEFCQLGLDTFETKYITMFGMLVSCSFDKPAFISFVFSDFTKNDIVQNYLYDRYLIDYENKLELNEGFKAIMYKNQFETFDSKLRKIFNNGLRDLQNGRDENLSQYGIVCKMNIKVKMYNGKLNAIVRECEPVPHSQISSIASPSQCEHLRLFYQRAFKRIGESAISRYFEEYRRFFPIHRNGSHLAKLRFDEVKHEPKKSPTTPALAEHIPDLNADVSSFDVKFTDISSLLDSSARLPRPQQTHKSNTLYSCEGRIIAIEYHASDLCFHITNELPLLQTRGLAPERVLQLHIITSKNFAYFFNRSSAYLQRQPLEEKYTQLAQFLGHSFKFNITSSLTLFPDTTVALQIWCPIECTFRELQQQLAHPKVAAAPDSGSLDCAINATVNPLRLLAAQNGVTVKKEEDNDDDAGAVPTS

Cdc13 [2] = biological target: T4, Cdc13; test: EMSA

GTGTGGGTGTG (ssDNA) [Tel11]
binding result (Cdc13-MOB): no binding
Kd (Cdc13-L91R): 0.22 ± 0.05 nM
Kd (Cdc13-DBD): 0.21 ± 0.02 nM
Kd (Cdc13 [1]): 0.41 ± 0.04 nM
Kd (Cdc13 [2]): 0.0134 ± 0.0004 nM
